From US20110318339A1 (FABRUS, published 2011)
Changes are numbered by the printed parent chain. Names and notes keep the numbering of the source.

B1: Fab VH5-51_IGHD5-18*01>3_IGHJ4*01 G100K/G104T G24A/S28R/G35V & V3-4_IGLJ1*01 (Fab, V domains shown)
VH: EVQLVQSGAEVKKPGESLKISCKASGYRFTSYWIVWVRQMPGKGLEWMGIIYPGDSDTRYSPSFQGQVTISADKSISTAYLQWSSLKASDTAMYYCARRKYSYTYDYFDYWGQGTLVTVSS
VL: QTVVTQEPSFSVSPGGTVTLTCGLSSGSVSTSYYPSWYQQTPGQAPRTLIYSTNTRSSGVPDRFSGSILGNKAALTITGAQADDESDYYCVLYMGSGISYVFGTGTKVTVL
notes: Fab made in E. coli: VH on CH1 with His6 and Flag tags (Plasmid A), VL on lambda CL (Plasmid E); also called H: KT ARV & L: wt
B2: Fab VH5-51_IGHD5-18*01>3_IGHJ4*01 G100K/G104T & V3-4_IGLJ1*01 M94R/S96M (Fab, V domains shown)
VH: B1 VH with A24G, R28S, V35G
VL: B1 VL with M94R, S96M
notes: Fab made in E. coli: VH on CH1 with His6 and Flag tags (Plasmid A), VL on lambda CL (Plasmid E); also called H: KT & L: RM
B3: Fab VH5-51_IGHD5-18*01>3_IGHJ4*01 G100K/G104T G24L/S28R/G35V & V3-4_IGLJ1*01 (Fab, V domains shown)
VH: B1 VH with A24L
VL: B1 VL
notes: Fab made in E. coli: VH on CH1 with His6 and Flag tags (Plasmid A), VL on lambda CL (Plasmid E); also called H: KT LRV & L: wt
B4: Fab VH1-46_IGHD6-6*01_IGHJ1*01 S102A/S103P/S104F/H111F N52L/S54T/G56H & L6_IGKJ1*01 S28N/S30D/S31H S52L/A55G (Fab, V domains shown)
VH: QVQLVQSGAEVKKPGASVKVSCKASGYTFTSYYMHWVRQAPGQGLEWMGIILPTGHSTSYAQKFQGRVTMTRDTSTSTVYMELSSLRSEDTAVYYCAREEYAPFSAEYFQFWGQGTLVTVSS
VL: EIVLTQSPATLSLSPGERATLSCRASQNVDHYLAWYQQKPGQAPRLLIYDALNRGTGIPARFSGSGSGTDFTLTISSLEPEDFAVYYCQQRSNWPPWTFGQGTKVEIKR
notes: Fab made in E. coli: VH on CH1 with His6 and Flag tags (Plasmid A), VL on kappa CL (Plasmid C); also called H: APFF LTH & L: NDH LG
B5: Fab VH1-46_IGHD6-6*01_IGHJ1*01 S102A/S103P/S104F/H111F I51A/N52L/S54T/G56H & L6_IGKJ1*01 S28N/S30D/S31H (Fab, V domains shown)
VH: B4 VH with I51A
VL: B4 VL with L52S, G55A
notes: Fab made in E. coli: VH on CH1 with His6 and Flag tags (Plasmid A), VL on kappa CL (Plasmid C); also called H: APFF ALTH & L: NDH
B6: Fab VH1-46_IGHD6-6*01_IGHJ1*01 S102A/S103P/S104F/H111F N52L/S54T/G56H & L6_IGKJ1*01 S28N/S30D/S31H (Fab, V domains shown)
VH: B4 VH
VL: B4 VL with L52S, G55A
notes: Fab made in E. coli: VH on CH1 with His6 and Flag tags (Plasmid A), VL on kappa CL (Plasmid C); also called H: APFF LTH & L: NDH
B7: Fab VH5-51_IGHD5-18*01>3_IGHJ4*01 & V3-4_IGLJ1*01 (Fab, V domains shown)
VH: B1 VH with A24G, R28S, V35G, K100G, T104G
VL: B1 VL
notes: Fab made in E. coli: VH on CH1 with His6 and Flag tags (Plasmid A), VL on lambda CL (Plasmid E); also called wildtype; parent
B8: Fab VH5-51_IGHD5-18*01>3_IGHJ4*01 G100K/G104T G24T/S28R/G35V & V3-4_IGLJ1*01 V91L/S96P S52V (Fab, V domains shown)
VH: B1 VH with A24T
VL: B1 VL with S52V, V91L, S96P
notes: Fab made in E. coli: VH on CH1 with His6 and Flag tags (Plasmid A), VL on lambda CL (Plasmid E); also called H: KT TRV & L: LP S52V
B9: Fab VH5-51_IGHD5-18*01>3_IGHJ4*01 G100K/G104T G24T/S28R/G35V & V3-4_IGLJ1*01 V91L/S96P S52K (Fab, V domains shown)
VH: B1 VH with A24T
VL: B1 VL with S52K, V91L, S96P
notes: Fab made in E. coli: VH on CH1 with His6 and Flag tags (Plasmid A), VL on lambda CL (Plasmid E); also called H: KT TRV & L: LP S52K

target: T1, recombinant human DLL4 (Cat# 1506-D4/CF, R&D Systems) (human, UniProt Q9NR61 27-529); assay: ELISA, DLL4 coated, Fab 20 nM
T1 construct: Bought protein; also called hDLL4; rHuman DLL4
Description: (§1) The plate was blocked by adding 1% BSA in Tris-buffered Saline Tween (TBST) and incubating for 1 hour at room temperature followed by washing 2 times with 150 μl TBST. A Fab antibody was serially diluted in 1% BSA in PBS. A 50 μl aliquot of each serial dilution was added, in triplicate, to each well and the plate was incubated for 1 hour at room temperature followed by washing 2 times with TBST. 50 μl of either goat anti-human kappa HRP conjugated secondary antibody (Cat # A7164-1 mL, Sigma-Aldrich) or goat anti-human lambda HRP conjugated secondary antibody (Cat # L1645-1 ml, Sigma-Aldrich), diluted 1:1000 in 1% BSA in PBS, was added to each well and the plate was incubated for 30 minutes at room temperature followed by washing 3 times with 200 μl TBST. Finally, 50 μl TMB one-component reagent (Cat # TMBW-1000-01, BioFax) was added and allowed to develop for 2 minutes at room temperature. The reaction was immediately halted by the addition of 50 μl 0.5M H₂SO₄ and the absorbance at 450 nm was measured using an ELISA plate reader.

Point of comparison: B5, “ELISA absorbance at 450 nm” value 0.391 A450. Against it:
- B1 — lower, 0.054 A450
- B2 — lower, 0.087 A450
- B3 — lower, 0.027 A450
- B4 — higher, 1.01 A450
- B6 — higher, 0.863 A450

target: T1, recombinant human DLL4 (Cat# …); assay: ELISA, DLL4 coated, Fab 25 nM
Description: as §1

Point of comparison: B7, “ELISA absorbance at 450 nm” value 0.18 A450. Against it:
- B8 — higher, 0.6 A450
- B9 — higher, 0.79 A450

target: T1, recombinant human DLL4 (Cat# …); assay: ELISA, DLL4 coated, Fab 50 nM
Description: (§2) In this example, an ELISA binding assay was used to assess the dose-dependent binding of Fab antibodies to recombinant human DLL4 and recombinant mouse DLL4.
as §1

Point of comparison: B7, “ELISA absorbance at 450 nm” value 0.16 A450. Against it:
- B8 — higher, 0.74 A450
- B9 — higher, 1.03 A450

target: T1, recombinant human DLL4 (Cat# …); assay: ELISA, DLL4 coated, Fab 100 nM
Description: as §2, §1

Point of comparison: B8, “ELISA absorbance at 450 nm” value 0.95 A450. Against it:
- B7 — lower, 0.17 A450
- B9 — higher, 1.23 A450

target: T1, recombinant human DLL4 (Cat# …); assay: ELISA, DLL4 coated, Fab 0.74 nM
Description: as §1

Point of comparison: B4, “ELISA absorbance at 450 nm” value 0.368 A450. Against it:
- B1 — lower, 0.008 A450
- B2 — lower, 0 A450
- B3 — lower, 0.006 A450
- B5 — lower, 0.024 A450
- B6 — lower, 0.27 A450

target: T1, recombinant human DLL4 (Cat# …); assay: ELISA, DLL4 coated, Fab 2.22 nM
Description: as §1

Point of comparison: B3, “ELISA absorbance at 450 nm” value 0 A450. Against it:
- B1 — higher, 0.002 A450
- B2 — higher, 0.007 A450
- B4 — higher, 0.594 A450
- B5 — higher, 0.069 A450
- B6 — higher, 0.463 A450

target: T1, recombinant human DLL4 (Cat# …); assay: ELISA, DLL4 coated, Fab 6.67 nM
Description: as §1

Point of comparison: B3, “ELISA absorbance at 450 nm” value 0.005 A450. Against it:
- B1 — higher, 0.025 A450
- B2 — higher, 0.023 A450
- B4 — higher, 0.88 A450
- B5 — higher, 0.232 A450
- B6 — higher, 0.739 A450

target: T1, recombinant human DLL4 (Cat# …); assay: ELISA, DLL4 coated, Fab 12.5 nM
Description: as §2, §1

Point of comparison: B8, “ELISA absorbance at 450 nm” value 0.43 A450. Against it:
- B7 — lower, 0.17 A450
- B9 — higher, 0.56 A450
